For the assay, the target named is T1, purified recombinant 6×His-TRIP13 (human, UniProt Q15645 1-432).
T1 construct: TRIP13, human AAA-ATPase; full-length cDNA cloned by the Gateway system; The host is probably E. coli: the methods name destination vectors for E. coli or mammalian cells; also called His-tagged TRIP13
T1 sequence (looked up): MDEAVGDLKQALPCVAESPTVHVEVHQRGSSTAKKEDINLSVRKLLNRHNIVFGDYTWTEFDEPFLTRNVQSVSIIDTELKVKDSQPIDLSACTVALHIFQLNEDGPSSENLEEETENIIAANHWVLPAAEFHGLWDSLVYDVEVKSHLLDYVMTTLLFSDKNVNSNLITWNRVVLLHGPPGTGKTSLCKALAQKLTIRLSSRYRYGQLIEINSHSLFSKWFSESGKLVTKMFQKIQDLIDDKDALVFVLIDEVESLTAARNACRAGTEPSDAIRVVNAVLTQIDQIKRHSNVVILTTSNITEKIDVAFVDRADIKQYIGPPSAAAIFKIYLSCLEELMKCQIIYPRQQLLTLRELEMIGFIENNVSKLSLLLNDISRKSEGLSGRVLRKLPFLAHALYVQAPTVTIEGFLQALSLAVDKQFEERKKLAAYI
The experiment in a line: pull-down; in vitro binding of recombinant proteins: His-TRIP13 at 100 nM, GST-p31^comet at increasing concentrations; Probond nickel beads, washed; blots with anti-6×His and anti-GST antibodies. The conditions noted are these: both partners purified.

B1: purified recombinant GST-p31^comet (natural protein, human, UniProt Q15013 1-274, looked up)
chain: MAAPEAEVLSSAAVPDLEWYEKSEETHASQIELLETSSTQEPLNASEAFCPRDCMVPVVFPGPVSQEGCCQFTCELLKHIMYQRQQLPLPYEQLKHFYRKPSPQAEEMLKKKPRATTEVSSRKCQQALAELESVLSHLEDFFARTLVPRVLILLGGNALSPKEFYELDLSLLAPYSVDQSLSTAACLRRLFRAIFMADAFSELQAPPLMGTVVMAQGHRNCGEDWFRPKLNYRVPSRGHKLTVTLSCGRPSIRTTAWEDYIWFQAPVTFKGFRE
notes: p31^comet (MAD2L1BP), human mitotic checkpoint silencing protein; full-length cDNA cloned by the Gateway system; The host is probably E. coli: the methods name destination vectors for E. coli or mammalian cells; also called MAD2L1BP
As for B1, the binding result is listed as “binds”.

The values are drawn from publication PMC3419070, “Identification of novel mitosis regulators through data mining with human centromere/kinetochore proteins as group queries” (BMC Cell Biology, 2012).
